Measured values taken from publication PMC4695088, “An Oomycete CRN Effector Reprograms Expression of Plant HSP Genes by Targeting their Promoters”.

T1: MBP:PsCRN108 (Phytophthora sojae, UniProt A0A0M5K865 18-820)
T1 sequence: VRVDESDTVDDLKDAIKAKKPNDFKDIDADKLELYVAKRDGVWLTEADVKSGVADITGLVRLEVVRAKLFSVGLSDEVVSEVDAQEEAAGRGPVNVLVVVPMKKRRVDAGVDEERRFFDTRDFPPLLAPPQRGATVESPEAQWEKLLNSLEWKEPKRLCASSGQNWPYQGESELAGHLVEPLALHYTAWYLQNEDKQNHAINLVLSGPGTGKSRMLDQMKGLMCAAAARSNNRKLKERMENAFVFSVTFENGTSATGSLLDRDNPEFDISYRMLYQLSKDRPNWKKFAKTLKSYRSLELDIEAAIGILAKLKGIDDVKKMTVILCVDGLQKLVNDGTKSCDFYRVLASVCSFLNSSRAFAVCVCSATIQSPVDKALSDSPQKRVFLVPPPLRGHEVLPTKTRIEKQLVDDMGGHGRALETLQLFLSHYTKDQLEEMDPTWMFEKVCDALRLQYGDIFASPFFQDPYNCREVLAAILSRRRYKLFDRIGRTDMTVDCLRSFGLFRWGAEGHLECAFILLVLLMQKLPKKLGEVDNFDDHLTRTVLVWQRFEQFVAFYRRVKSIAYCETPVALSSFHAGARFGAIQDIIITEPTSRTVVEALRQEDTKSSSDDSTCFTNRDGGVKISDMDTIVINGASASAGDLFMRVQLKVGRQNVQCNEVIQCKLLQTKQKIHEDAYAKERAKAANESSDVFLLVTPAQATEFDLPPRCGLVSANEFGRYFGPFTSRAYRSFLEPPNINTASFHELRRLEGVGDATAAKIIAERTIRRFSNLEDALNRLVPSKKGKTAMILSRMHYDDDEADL

T2: GST:PsCRN108 (Phytophthora sojae, UniProt A0A0M5K865 18-820)
T2 sequence: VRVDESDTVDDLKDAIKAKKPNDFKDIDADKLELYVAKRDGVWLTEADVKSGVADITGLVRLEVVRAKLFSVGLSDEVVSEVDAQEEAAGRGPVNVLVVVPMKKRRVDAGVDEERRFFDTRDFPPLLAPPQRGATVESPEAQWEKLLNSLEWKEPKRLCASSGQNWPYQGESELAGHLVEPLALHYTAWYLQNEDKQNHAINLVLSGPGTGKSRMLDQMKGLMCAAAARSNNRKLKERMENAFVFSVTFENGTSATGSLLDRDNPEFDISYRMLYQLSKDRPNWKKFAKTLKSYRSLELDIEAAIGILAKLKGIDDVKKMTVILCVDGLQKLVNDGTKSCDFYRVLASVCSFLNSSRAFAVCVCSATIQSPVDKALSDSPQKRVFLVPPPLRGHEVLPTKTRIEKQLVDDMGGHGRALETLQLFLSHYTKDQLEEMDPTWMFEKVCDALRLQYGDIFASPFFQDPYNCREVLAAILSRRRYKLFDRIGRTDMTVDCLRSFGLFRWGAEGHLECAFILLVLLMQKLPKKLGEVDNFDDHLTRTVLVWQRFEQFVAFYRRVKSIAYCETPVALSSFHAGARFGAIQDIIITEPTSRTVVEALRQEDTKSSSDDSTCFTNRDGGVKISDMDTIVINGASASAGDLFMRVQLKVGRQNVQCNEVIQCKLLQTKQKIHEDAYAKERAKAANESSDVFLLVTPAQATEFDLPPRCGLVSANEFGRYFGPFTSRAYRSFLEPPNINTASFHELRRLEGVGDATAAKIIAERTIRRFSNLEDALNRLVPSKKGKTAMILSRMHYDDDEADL


Legend:
[1] = target: T3, MBP:AtHsfA1a (Arabidopsis thaliana, UniProt P41151 1-495); experiment: EMSA; up to 2 uM protein, 5 nM DNA; complex in wells; competed by unlabeled HSE; 25 mM HEPES pH 8, 10 mM MgCl2, 20 mM KCl, 0.1 mM EDTA, 1 mM DTT, 100 ng poly(dI-dC), 5% glycerol, 25 C (EMSA 3 h; pull-down in the same buffer, 1 h + 1 h); conditions: protein: recombinant; tags: N-terminal His, MBP (pHMTc); chain copies: 3; label: 5' Alex660 (EMSA); blunt
T3 sequence (P41151 whole entry): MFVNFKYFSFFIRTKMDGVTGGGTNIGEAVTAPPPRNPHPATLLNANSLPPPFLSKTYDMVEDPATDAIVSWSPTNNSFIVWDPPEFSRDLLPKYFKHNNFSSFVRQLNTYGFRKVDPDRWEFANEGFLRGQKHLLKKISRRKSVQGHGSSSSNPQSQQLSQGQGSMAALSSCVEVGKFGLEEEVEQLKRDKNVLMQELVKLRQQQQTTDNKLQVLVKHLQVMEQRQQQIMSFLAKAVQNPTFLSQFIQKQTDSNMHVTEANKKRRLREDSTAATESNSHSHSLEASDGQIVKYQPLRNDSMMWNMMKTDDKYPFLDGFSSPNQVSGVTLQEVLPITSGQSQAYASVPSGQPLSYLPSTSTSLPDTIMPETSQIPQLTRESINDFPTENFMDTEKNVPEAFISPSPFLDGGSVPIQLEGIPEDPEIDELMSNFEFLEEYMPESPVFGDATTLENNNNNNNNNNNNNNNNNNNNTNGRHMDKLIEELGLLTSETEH

[2] = target: T1, MBP:PsCRN108; experiment: EMSA; up to 6 uM protein, 5 nM DNA; weaker than AtHsfA1a; complex in wells; competed by unlabeled HSE; 25 mM HEPES pH 8, 10 mM MgCl2, 20 mM KCl, 0.1 mM EDTA, 1 mM DTT, 100 ng poly(dI-dC), 5% glycerol, 25 C (EMSA 3 h; pull-down in the same buffer, 1 h + 1 h); conditions: protein: recombinant; tags: N-terminal His, MBP (pHMTc); label: 5' Alex660 (EMSA); blunt
[3] = target: T1, MBP:PsCRN108; experiment: pull-down; 25 mM HEPES pH 8, 10 mM MgCl2, 20 mM KCl, 0.1 mM EDTA, 1 mM DTT, 100 ng poly(dI-dC), 5% glycerol, 25 C (EMSA 3 h; pull-down in the same buffer, 1 h + 1 h); conditions: protein: recombinant; tags: N-terminal His, MBP (pHMTc); label: 5' biotin; blunt
[4] = target: T2, GST:PsCRN108; experiment: as above; conditions: protein: recombinant; tags: N-terminal GST (pGEX-4T-2); label: 5' biotin; blunt
[5] = target: T3, MBP:AtHsfA1a; experiment: as above; conditions: protein: recombinant; tags: N-terminal His, MBP (pHMTc); chain copies: 3; label: 5' biotin; blunt

Row | Binder | binding result [1] | binding result [2] | binding result [3] | binding result [4] | binding result [5]
1 | 19 bp HSE (dsDNA) DNA 1: CCAGAAGCTTCCAGAAGCC DNA 2: GGCTTCTGGAAGCTTCTGG | binds | binds |  |  | 
2 | biotinylated 19 bp HSE (dsDNA) DNA 1: CCAGAAGCTTCCAGAAGCC DNA 2: GGCTTCTGGAAGCTTCTGG |  |  | binds | binds | binds
